# Legend:
# Test in all cases: CasPlay immunoprecipitation of the virome-wide library (245,002 barcodes), z-score of gRNA barcodes
# [1] = target: dCas9-FLAG peptide fusion (CasPlay library member, C-terminal 6His tag) (Streptococcus pyogenes) (UniProt Q99ZW2)
# [2] = target: dCas9-HA epitope tag control peptide (CasPlay virome library) (Streptococcus pyogenes) (UniProt Q99ZW2)
# [3] = target: dCas9-myc epitope tag control peptide (CasPlay virome library) (Streptococcus pyogenes) (UniProt Q99ZW2)
substance,measurement,setting,value
anti-FLAG M2 antibody,rank of z-score among all peptides of the library,[1],< 0.2%
anti-HA antibody (Cell Signaling C29F4),rank of z-score among all peptides of the library,[2],< 0.2%
anti-myc antibody (Abcam ab9106),rank of z-score among all peptides of the library,[3],< 0.2%

# From patent publication US20240352452A1
